Test results from article PMC3542637 (Biochemistry, 2012).

Target: the molecule itself
Experiment: crystal structure

B1: L-fucose dehydrogenase BmulJ_04919 from Burkholderia multivorans ATCC 17616 (enzyme, UniProt A0A0H3KNE7 1-258, looked up)
chain: MDLNLQDKVVIVTGGASGIGGAISMRLAEERAIPVVFARHAPDGAFLDALAQRQPRATYLPVELQDDAQCRDAVAQTIATFGRLDGLVNNAGVNDGIGLDAGRDAFVASLERNLIHYYAMAHYCVPHLKATRGAIVNISSKTAVTGQGNTSGYCASKGAQLALTREWAVALREHGVRVNAVIPAEVMTPLYRNWIATFEDPEAKLAEIAAKVPLGRRFTTPDEIADTAVFLLSPRASHTTGEWLFVDGGYTHLDRALV
Q: Which “stoichiometry N” value does the source give for B1 here?
A: 4
